{"source": "patent US20230141962A1", "key": {"[1]": {"biological_target": "SARS-CoV-2 S1 (D614G) (SARS-CoV-2), P0DTC2", "details": "remark: other sources report otherwise"}, "[2]": {"biological_target": "SARS-CoV-2 S1 Beta Variant (K417N, E484K, N501Y, D614G) (SARS-CoV-2), P0DTC2", "details": "remark: other sources report otherwise"}}, "data": [{"binder": "scFv clone #26 (scFv) scFv: QAVLTQAPSASGTLGQQVTISCSGTTSNIGRNTVNWYQHLPGTAPKLLIFVSNQRPSGVPDRFSGSKSGTSASLVISGLQSEDEADYYCGAWDDSLDGMLFGGGTKLTVLGSRGGGGSGGGGSGGGGSLEMAQVQLVQSGAEVKKPGASVKVSCKASGYTFTSYGISWVRQAPGQGLEWMGWISAYNGNTNYAQKLQGRVTMTTDTSTSTAYMELRSLRSDDTAVYYCARGYYGDLDPWGQGTLVTVSSTSGQAGQ", "values": [{"measurement": "IC50", "setting": "[1]", "value": 1.4, "unit": "nM"}, {"measurement": "IC50", "setting": "[2]", "value": 2.27, "unit": "nM"}]}]}
